Earlier results on one substance are cited in paper PMC6039870.

In this data set the target is RNH1 (Homo sapiens) (UniProt P13489).
UniProt P13489, sequence (P13489 2-461): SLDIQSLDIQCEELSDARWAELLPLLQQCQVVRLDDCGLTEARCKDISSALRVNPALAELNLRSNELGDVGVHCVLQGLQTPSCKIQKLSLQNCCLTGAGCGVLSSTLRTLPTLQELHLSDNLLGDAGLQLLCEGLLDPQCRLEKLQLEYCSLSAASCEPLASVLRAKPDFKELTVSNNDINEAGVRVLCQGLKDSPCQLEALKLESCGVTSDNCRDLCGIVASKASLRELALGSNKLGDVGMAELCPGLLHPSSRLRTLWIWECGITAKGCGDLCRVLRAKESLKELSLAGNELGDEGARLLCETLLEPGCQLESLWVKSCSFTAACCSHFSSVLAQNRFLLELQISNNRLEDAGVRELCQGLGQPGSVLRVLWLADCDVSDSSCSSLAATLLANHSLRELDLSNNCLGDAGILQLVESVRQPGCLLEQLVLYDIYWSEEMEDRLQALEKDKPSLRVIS

One may read the Kd as the concentration at which binding is half-saturated. With RNASE1 (from UniProt P07998), the equilibrium dissociation constant (Kd) is 0.0003 pM.
